Experimental data as given in PMC4148960.

How the values were obtained:
[1] = biological target: MYC-Grg5 (in COS-7 cells) (UniProt P63002)
GST-fused Grg1 = GST-fused Grg1 (UniProt Q62440); experiment: pull-down; GST-Grg1 or GST-Grg5 from lysed BL21 E. coli incubated with S^35-labelled in vitro translated Sox2 proteins; pulled down with Glutathione-sepharose 4B beads; PAGE gel on a phosphorimager
GST-fused Grg5 = GST-fused Grg5 (UniProt P63002); experiment: as above
GST-fused Grg5, sequence (P63002 whole entry, the tested form may be a part): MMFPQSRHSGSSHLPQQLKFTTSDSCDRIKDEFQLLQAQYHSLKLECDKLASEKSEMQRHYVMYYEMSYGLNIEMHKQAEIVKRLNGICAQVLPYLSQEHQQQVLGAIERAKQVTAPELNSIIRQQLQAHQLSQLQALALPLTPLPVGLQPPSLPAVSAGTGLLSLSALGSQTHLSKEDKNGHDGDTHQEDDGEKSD

radiolabelled Sox2^M203–209 (in vitro translated), sequence (P48432 whole entry): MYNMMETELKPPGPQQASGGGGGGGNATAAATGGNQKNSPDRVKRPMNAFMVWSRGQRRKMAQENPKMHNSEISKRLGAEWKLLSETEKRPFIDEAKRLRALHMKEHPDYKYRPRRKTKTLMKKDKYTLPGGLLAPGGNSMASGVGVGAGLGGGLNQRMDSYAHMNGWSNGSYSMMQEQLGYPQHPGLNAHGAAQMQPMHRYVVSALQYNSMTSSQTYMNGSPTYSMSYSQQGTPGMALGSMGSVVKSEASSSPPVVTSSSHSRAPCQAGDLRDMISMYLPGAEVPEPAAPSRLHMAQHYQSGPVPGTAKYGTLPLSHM
Sox2^M203–209 mutant (transfected, COS-7 cells), sequence (P48432 whole entry, change not shown): as the sequence (P48432 whole entry) above
MYC-Grg5 (in COS-7 cells), sequence (P63002 whole entry, the tested form may be a part): as the sequence (P63002 whole entry, the tested form may be a part) above
GST-fused Grg1, sequence (Q62440 whole entry, the tested form may be a part): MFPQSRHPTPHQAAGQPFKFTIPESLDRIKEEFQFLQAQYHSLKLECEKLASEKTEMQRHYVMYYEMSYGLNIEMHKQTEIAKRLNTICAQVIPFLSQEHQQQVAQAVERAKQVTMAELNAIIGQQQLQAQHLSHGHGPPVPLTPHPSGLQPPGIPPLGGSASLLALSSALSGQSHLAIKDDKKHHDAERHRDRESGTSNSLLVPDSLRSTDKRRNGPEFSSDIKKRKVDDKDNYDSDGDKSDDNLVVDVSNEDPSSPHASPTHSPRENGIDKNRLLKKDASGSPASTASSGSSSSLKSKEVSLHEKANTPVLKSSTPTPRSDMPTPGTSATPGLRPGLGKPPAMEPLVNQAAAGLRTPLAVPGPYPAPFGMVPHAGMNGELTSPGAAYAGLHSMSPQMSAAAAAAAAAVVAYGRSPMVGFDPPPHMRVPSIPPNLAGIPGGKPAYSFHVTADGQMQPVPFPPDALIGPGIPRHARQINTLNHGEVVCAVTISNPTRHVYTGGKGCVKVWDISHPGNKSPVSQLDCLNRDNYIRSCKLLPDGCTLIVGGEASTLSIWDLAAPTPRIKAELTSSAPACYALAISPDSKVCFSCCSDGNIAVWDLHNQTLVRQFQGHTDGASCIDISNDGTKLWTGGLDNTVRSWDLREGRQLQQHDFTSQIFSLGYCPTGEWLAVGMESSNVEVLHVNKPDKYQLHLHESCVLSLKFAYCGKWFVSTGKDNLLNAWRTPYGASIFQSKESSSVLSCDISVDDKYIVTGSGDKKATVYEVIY

subcellular translocation assay: proportion of co-transfected COS-7 cells with altered distribution of MYC-Grg5, mutant against WT Sox2 [1] | fold decrease in the amount pulled down against WT Sox2 (GST-fused Grg1) | fold decrease in the amount pulled down against WT Sox2 (GST-fused Grg5) | Substance
50% |  |  | Sox2^M203–209 mutant (transfected, COS-7 cells) (from UniProt P48432 1-319) (natural protein)
 | 4 fold | 4 fold | radiolabelled Sox2^M203–209 (in vitro translated) (from UniProt P48432 1-319) (natural protein)
